The values below come from patent publication US20240218069A1 (LYVGEN BIOPHARMA, published 2024).

The target in one test is T1, human B7H3 (human, UniProt Q5ZPR3 29-534).
T1 construct: whole, on cells; CHO cells over-expressing human B7H3 (CHO-B7H3); also called CD276; cellular B7H3
T1 sequence (looked up): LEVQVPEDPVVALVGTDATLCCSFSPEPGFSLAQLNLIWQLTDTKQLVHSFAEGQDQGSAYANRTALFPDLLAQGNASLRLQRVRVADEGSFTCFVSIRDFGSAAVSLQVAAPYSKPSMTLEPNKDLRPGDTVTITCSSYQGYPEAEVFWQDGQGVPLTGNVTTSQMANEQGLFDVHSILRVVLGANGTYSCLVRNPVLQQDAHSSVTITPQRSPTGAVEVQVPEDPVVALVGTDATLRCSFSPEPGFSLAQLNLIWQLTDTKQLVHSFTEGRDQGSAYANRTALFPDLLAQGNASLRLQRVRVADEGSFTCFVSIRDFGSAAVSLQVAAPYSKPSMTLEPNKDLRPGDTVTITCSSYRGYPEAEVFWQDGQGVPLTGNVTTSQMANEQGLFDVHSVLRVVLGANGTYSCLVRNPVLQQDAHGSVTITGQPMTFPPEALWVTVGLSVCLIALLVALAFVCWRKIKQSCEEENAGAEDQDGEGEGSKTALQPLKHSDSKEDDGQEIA
Briefly: FACS on CHO cells over-expressing human B7H3. As to the method: FACS analysis was performed to evaluate the binding properties of exemplary anti-B7H3 humanized antibodies. Briefly, CHO cells over-expressing human B7H3 were harvested using trypsin-EDTA partial digestion followed by centrifugation at 1000 g for 3 minutes. The cells were re-suspended in cold PBS-BSA (2%) at 2×10⁶/mL and aliquoted to 100 μL/tube. The anti-B7H3 humanized antibodies were serially diluted in PBS-BSA and 50 μL of each was added to the CHO-B7H3 cells. The cell were mixed and incubated at 4° C. in the dark for 2 hours, then washed with PBS-BSA twice. Secondary antibody conjugates (goat F(ab′)₂ anti-human IgG-Fc (PE), pre-adsorbed, Abcam #ab98596) at 1/500 dilution, 100 μL/well, was used to resuspend the cells. The cells were incubated 4° C. in dark for another 1 hour and washed twice with PBS-BSA, followed by fixation in 2% PFA/PBS, and then subjected to FACS analysis.
Binding of the antibodies to human B7H3 expressing CHO cells were evaluated and the mean fluorescence intensity is plotted in histograms as shown in FIGS. 1A-1C. […] However, Ly1426 (CDR grafted, without back mutation) didn't bind to cellular B7H3.

The target of test [1] is T2, human CD40 (human, UniProt P25942 21-277).
T2 construct: whole, on cells; also called huCD40
Briefly: FACS on CHO cells expressing human CD40 (FIG. 2C).

For test [2], the target named is T2, human CD40. The experiment in a line: FACS on CHO cells expressing human CD40 (FIG. 2D).
The target in test [3] is T2, human CD40. The experiment in a line: FACS on CHO cells expressing human CD40 (FIGS. 2C and 2D).

T2 sequence (P25942 21-277): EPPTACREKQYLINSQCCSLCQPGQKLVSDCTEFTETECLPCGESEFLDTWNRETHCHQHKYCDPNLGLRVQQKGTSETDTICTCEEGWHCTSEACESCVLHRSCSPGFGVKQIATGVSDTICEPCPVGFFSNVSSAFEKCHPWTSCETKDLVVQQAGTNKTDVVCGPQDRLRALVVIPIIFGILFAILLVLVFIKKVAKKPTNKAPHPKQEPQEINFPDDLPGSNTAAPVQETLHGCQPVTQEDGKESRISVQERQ

B1: Ly1426 (antibody, human IgG1, kappa, V domains shown)
VH: QVQLVQSGAEVKKPGASVKVSCKASGYTFTSYVMHWVRQAPGQGLEWMGYINPYNDGTECTDKFKGRVTMTRDTSTSTVYMELSSLRSEDTAVYYCARIYYGYDGTYFGVWGQGTLVTVSS
VL: EIVLTQSPATLSLSPGERATLSCRASSSVSYMHWYQQKPGQAPRLLIYATSNLASGIPARFSGSGSGTDFTLTISSLEPEDFAVYYCQQWSSNTLTFGGGTKVEIKR
notes: also called Ly383_VH-1/Ly383_VL-1; grafted humanized antibody of Ly383
Regarding B1, in the test with human B7H3, the binding result is recorded as “no binding”.

B2: Ly1663 (bispecific antibody)
heavy: QVQLVQSGAEVKKPGASVKVSCKASGYTFTSYVMHWVRQKPGQGLEWIGYINPYNEGTESTDKFKGRATMTSDKSTSTVYMELSSLRSEDTAVYYCASIYYGYEGTYFGVWGQGTLVTVSSASTKGPSVFPLAPSSKSTSGGTAALGCLVKDYFPEPVTVSWNSGALTSGVHTFPAVLQSSGLYSLSSVVTVPSSSLGTQTYICNVNHKPSNTKVDKKVEPKSCDKTHTCPPCPAPELLGPSVFLFPPKPKDTLMISRTPEVTCVVVDVSHEDPEVKFNWYVDGVEVHNAKTKPREEQYNSTYRVVSVLTVLHQDWLNGKEYKCKVSNKALPAPIEKTISKAKGQPREPQVYTLPPSREEMTKNQVSLTCLVKGFYPSDIAVEWESNGQPENNYKTTPPVLDSDGSFFLYSKLTVDKSRWQQGNVFSCSVMHEALHNHYTQKSLSLSPGK
light: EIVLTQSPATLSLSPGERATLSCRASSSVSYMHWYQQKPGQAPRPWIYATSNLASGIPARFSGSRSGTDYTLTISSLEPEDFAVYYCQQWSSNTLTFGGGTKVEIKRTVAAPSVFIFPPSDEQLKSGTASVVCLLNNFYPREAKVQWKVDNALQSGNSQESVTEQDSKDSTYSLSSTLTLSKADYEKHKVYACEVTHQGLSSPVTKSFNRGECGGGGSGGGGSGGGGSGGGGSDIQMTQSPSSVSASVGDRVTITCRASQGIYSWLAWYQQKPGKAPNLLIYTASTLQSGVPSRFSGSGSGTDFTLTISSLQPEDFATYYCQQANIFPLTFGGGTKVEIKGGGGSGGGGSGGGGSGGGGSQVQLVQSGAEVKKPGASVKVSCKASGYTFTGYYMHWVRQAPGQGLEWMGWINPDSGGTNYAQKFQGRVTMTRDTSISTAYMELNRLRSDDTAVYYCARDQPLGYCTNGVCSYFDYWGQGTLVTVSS
notes: Two-chain format; also called anti-B7H3/CD40 bi-specific antibody Ly1663
In the case of B2, the binding result in the test with human CD40 [1] was “binds”.

B3: Ly1579 (bispecific antibody)
heavy: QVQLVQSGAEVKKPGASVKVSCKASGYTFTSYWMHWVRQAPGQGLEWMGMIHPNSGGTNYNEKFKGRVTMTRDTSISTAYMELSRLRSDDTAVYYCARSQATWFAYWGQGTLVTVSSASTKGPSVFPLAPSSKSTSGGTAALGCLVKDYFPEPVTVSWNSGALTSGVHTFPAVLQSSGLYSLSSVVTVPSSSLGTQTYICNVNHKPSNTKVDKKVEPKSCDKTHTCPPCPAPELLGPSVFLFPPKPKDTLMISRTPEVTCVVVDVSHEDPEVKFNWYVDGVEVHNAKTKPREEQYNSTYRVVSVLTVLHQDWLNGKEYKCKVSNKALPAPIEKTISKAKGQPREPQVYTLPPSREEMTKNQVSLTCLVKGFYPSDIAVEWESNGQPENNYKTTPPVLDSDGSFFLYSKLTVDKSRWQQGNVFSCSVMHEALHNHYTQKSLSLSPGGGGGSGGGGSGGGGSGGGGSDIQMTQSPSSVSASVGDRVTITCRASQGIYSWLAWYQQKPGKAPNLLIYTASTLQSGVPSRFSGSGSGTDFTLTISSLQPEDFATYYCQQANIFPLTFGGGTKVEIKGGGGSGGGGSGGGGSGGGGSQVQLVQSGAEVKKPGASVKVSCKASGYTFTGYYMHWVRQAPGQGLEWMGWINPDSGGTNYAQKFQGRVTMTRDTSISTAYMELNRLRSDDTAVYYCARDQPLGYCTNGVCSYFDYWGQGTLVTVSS
light: EIVLTQSPATLSLSPGERATLSCRASSSVSSSYLHWYQQKPGQAPRLLIYSTSNLASGIPARFSGSGSGTDFTLTISSLEPEDFAVYYCQHYSGYPLTFGGGTKVEIKRTVAAPSVFIFPPSDEQLKSGTASVVCLLNNFYPREAKVQWKVDNALQSGNSQESVTEQDSKDSTYSLSSTLTLSKADYEKHKVYACEVTHQGLSSPVTKSFNRGEC
notes: Two-chain format; also called anti-B7H3/CD40 bi-specific antibody Ly1579
As for B3, the binding result with human CD40 [2] was “binds”.

B4: Ly1581 (bispecific antibody)
heavy: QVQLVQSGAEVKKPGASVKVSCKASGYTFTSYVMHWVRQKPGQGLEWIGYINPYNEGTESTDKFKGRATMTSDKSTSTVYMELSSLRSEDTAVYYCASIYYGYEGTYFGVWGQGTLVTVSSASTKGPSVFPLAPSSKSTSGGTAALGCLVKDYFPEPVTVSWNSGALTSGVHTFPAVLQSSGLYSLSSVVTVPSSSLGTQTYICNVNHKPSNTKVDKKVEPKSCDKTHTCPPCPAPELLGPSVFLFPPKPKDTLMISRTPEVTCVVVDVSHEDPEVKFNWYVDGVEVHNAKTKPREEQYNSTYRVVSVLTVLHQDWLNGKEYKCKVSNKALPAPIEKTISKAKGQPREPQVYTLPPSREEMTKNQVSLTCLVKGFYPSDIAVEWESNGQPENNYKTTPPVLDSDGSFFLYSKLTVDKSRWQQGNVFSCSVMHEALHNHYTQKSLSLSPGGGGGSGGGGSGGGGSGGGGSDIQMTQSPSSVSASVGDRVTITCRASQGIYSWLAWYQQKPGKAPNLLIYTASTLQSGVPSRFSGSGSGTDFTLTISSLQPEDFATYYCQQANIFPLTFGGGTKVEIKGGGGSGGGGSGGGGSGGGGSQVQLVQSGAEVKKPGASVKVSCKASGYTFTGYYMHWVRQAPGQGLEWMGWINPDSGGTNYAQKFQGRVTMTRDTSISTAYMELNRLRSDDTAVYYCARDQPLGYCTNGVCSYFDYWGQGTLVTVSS
light: EIVLTQSPATLSLSPGERATLSCRASSSVSYMHWYQQKPGQAPRPWIYATSNLASGIPARFSGSRSGTDYTLTISSLEPEDFAVYYCQQWSSNTLTFGGGTKVEIKRTVAAPSVFIFPPSDEQLKSGTASVVCLLNNFYPREAKVQWKVDNALQSGNSQESVTEQDSKDSTYSLSSTLTLSKADYEKHKVYACEVTHQGLSSPVTKSFNRGEC
notes: also called anti-B7H3/CD40 bi-specific antibody Ly1581
As for B4, in the test with human CD40 [3], the binding result is given as “binds”.

B5: Ly1662 (bispecific antibody)
heavy: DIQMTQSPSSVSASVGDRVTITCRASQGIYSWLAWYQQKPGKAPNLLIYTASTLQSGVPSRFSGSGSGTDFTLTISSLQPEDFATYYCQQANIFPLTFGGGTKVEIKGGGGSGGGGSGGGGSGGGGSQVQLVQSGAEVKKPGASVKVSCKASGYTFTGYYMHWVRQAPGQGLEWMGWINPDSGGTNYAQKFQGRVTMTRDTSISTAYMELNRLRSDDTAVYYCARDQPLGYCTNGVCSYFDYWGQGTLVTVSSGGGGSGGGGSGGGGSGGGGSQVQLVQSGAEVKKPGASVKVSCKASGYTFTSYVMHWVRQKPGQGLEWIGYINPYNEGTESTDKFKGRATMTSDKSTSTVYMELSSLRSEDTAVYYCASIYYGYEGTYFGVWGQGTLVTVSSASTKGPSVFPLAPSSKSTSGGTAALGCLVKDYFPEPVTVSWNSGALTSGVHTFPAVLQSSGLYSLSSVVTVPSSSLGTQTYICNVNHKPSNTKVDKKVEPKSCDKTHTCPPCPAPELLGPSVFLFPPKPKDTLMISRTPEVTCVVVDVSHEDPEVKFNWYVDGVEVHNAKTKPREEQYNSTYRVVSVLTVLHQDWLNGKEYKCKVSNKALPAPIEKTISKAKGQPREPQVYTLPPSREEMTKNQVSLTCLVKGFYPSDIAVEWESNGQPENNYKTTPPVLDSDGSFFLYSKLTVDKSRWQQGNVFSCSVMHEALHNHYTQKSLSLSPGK
light: EIVLTQSPATLSLSPGERATLSCRASSSVSYMHWYQQKPGQAPRPWIYATSNLASGIPARFSGSRSGTDYTLTISSLEPEDFAVYYCQQWSSNTLTFGGGTKVEIKRTVAAPSVFIFPPSDEQLKSGTASVVCLLNNFYPREAKVQWKVDNALQSGNSQESVTEQDSKDSTYSLSSTLTLSKADYEKHKVYACEVTHQGLSSPVTKSFNRGEC
notes: Two-chain format; also called anti-B7H3/CD40 bi-specific antibody Ly1662
Take B5: the binding result with human CD40 [1] is “binds”.

B6: Ly1660 (bispecific antibody, human IgG1, kappa)
heavy: QVQLVQSGAEVKKPGASVKVSCKASGYTFTSYVMHWVRQKPGQGLEWIGYINPYNEGTESTDKFKGRATMTSDKSTSTVYMELSSLRSEDTAVYYCASIYYGYEGTYFGVWGQGTLVTVSSASTKGPSVFPLAPSSKSTSGGTAALGCLVKDYFPEPVTVSWNSGALTSGVHTFPAVLQSSGLYSLSSVVTVPSSSLGTQTYICNVNHKPSNTKVDKKVEPKSCDKTHTCPPCPAPELLGPSVFLFPPKPKDTLMISRTPEVTCVVVDVSHEDPEVKFNWYVDGVEVHNAKTKPREEQYNSTYRVVSVLTVLHQDWLNGKEYKCKVSNKALPAPIEKTISKAKGQPREPQVYTLPPCREEMTKNQVSLWCLVKGFYPSDIAVEWESNGQPENNYKTTPPVLDSDGSFFLYSKLTVDKSRWQQGNVFSCSVMHEALHNHYTQKSLSLSPGK
chain 1: not shown
light: EIVLTQSPATLSLSPGERATLSCRASSSVSYMHWYQQKPGQAPRPWIYATSNLASGIPARFSGSRSGTDYTLTISSLEPEDFAVYYCQQWSSNTLTFGGGTKVEIKRTVAAPSVFIFPPSDEQLKSGTASVVCLLNNFYPREAKVQWKVDNALQSGNSQESVTEQDSKDSTYSLSSTLTLSKADYEKHKVYACEVTHQGLSSPVTKSFNRGEC
chain 2: DIQMTQSPSSVSASVGDRVTITCRASQGIYSWLAWYQQKPGKAPNLLIYTASTLQSGVPSRFSGSGSGTDFTLTISSLQPEDFATYYCQQANIFPLTFGGGTKVEIKSSASTKGPSVFPLAPSSKSTSGGTAALGCLVKDYFPEPVTVSWNSGALTSGVHTFPAVLQSSGLYSLSSVVTVPSSSLGTQTYICNVNHKPSNTKVDKKVEPKSC
notes: Four-chain heterodimer format; also called anti-B7H3/CD40 bi-specific antibody Ly1660
As to B6, the binding result in the test with human CD40 [1] was “binds”.

B7: Ly1661 (bispecific antibody, human IgG1, kappa)
heavy: QVQLVQSGAEVKKPGASVKVSCKASGYTFTSYVMHWVRQKPGQGLEWIGYINPYNEGTESTDKFKGRATMTSDKSTSTVYMELSSLRSEDTAVYYCASIYYGYEGTYFGVWGQGTLVTVSSASTKGPSVFPLAPSSKSTSGGTAALGCLVKDYFPEPVTVSWNSGALTSGVHTFPAVLQSSGLYSLSSVVTVPSSSLGTQTYICNVNHKPSNTKVDKKVEPKSCDKTHTCPPCPAPELLGPSVFLFPPKPKDTLMISRTPEVTCVVVDVSHEDPEVKFNWYVDGVEVHNAKTKPREEQYNSTYRVVSVLTVLHQDWLNGKEYKCKVSNKALPAPIEKTISKAKGQPREPQVYTDPPSREEMTKNQVSLTCEVKGFYPSDIAVEWESNGQPENNYKTTPPVLDSDGSFFLYSKLTVDKSRWQQGNVFSCSVMHEALHNHYTQKSLSLSPGK
chain 1: not shown
light: EIVLTQSPATLSLSPGERATLSCRASSSVSYMHWYQQKPGQAPRPWIYATSNLASGIPARFSGSRSGTDYTLTISSLEPEDFAVYYCQQWSSNTLTFGGGTKVEIKRTVAAPSVFIFPPSDEQLKSGTASVVCLLNNFYPREAKVQWKVDNALQSGNSQESVTEQDSKDSTYSLSSTLTLSKADYEKHKVYACEVTHQGLSSPVTKSFNRGEC
chain 2: DIQMTQSPSSVSASVGDRVTITCRASQGIYSWLAWYQQKPGKAPNLLIYTASTLQSGVPSRFSGSGSGTDFTLTISSLQPEDFATYYCQQANIFPLTFGGGTKVEIKSSASTKGPSVFPLAPSSKSTSGGTAALGCLVKDYFPEPVTVSWNSGALTSGVHTFPAVLQSSGLYSLSSVVTVPSSSLGTQTYICNVNHKPSNTKVDKKVEPKSC
notes: Four-chain heterodimer format; also called anti-B7H3/CD40 bi-specific antibody Ly1661
As for B7, in the test with human CD40 [1], the binding result was “binds”.
